From US20250352661A1 (MYTHIC THERAPEUTICS, published 2025) come the findings set out here.

Numbering of substitutions follows the chain as printed. Numbers in names are those of the source.

T1: LRRC15 on the surface of LRRC15+ cells (SAOS-2, U87MG) (UniProt Q8TF66 22-581, limits assumed)
T1 sequence (looked up): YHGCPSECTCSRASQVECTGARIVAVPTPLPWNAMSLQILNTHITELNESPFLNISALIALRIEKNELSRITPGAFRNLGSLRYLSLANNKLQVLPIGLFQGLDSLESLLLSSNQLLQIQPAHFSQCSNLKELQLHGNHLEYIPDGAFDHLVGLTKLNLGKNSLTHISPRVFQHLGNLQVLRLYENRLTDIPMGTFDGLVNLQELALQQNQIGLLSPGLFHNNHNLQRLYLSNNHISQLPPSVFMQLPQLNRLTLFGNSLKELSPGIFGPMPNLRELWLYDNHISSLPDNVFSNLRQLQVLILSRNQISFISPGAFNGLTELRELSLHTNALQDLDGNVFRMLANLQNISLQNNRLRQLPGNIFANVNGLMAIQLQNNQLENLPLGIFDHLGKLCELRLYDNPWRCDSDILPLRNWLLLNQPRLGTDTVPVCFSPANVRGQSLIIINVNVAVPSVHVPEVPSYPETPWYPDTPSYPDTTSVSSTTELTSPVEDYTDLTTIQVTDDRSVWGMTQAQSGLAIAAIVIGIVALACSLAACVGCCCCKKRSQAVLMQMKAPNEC

T2: Human LRRC15 Protein, His Tag (Acro Biosystems) (human, UniProt Q8TF66 22-538, limits assumed)
T2 construct: Bought protein with His tag
T2 sequence (looked up): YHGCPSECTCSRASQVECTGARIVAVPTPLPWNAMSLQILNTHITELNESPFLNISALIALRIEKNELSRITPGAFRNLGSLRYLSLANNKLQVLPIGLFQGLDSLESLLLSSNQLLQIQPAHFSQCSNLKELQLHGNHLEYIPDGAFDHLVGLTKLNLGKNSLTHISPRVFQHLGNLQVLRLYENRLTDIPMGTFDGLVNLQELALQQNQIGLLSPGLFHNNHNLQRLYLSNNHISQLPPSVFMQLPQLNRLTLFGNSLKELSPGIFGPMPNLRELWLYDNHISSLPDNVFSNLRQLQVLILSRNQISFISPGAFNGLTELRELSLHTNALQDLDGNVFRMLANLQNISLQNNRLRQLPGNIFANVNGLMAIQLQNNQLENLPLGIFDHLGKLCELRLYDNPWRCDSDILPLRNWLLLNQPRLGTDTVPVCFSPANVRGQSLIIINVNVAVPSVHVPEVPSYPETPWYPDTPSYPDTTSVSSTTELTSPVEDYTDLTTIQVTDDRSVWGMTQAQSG

T3: Human LRRC15 Protein, His Tag (Acro Biosystems) (human, UniProt Q8TF66 22-538, limits assumed)
T3 sequence (looked up): T2 sequence (looked up)

B1: MYT3315 (antibody, V domains shown)
VH: EVQLVESGGGLVQPGGSLRLSCAVSGFSLTSYGVHWVRQATGKGLEWLGVIWAGGSTNYNSALMSRLTISKENAKSSVYLQMNSLRAGDTAMYYCATHMITEDYYGMDYWGQGTTVTVSS
VL: DIVMTQSPDSLAVSLGERATINCKSSQSLLNSRTRKNYLAWYQQKPGQSPKLLIYWASTRHSGVPDRFSGSGSGTDFTLTISSLQAEDVAVYYCKQSYNLPTFGGGTKVEIK
B2: MYT9776 (antibody, V domains shown)
VH: EVQLVESGGGLVQPGGSLRLSCTASGFSFSGHYWICWVRQAPGKGLEWVGCIHGGSHDITYYASWAKGRFTISRDTSKNTVYLQKTSLRAEDTAVYYCASDTSYTAYGNFYFNLWGQGTLVTVSS
VL: EIVMTQSPSPLSASVGDRVIITCQSSQSVLNNNWLAWYQQKPGKAPKLLIYDASSLASGVPSRFSGSGSGAEFTLTISSLQPDDFATYYCQGEFSCGSADCNAFGQGTKLEIK
B3: MYT8415 (antibody, V domains shown)
VH: EVQLVESGGGLVQPGGSLRLSCTASGLDFRRTNYICWVRQAPGKGLEWVGCIYIADVVHYYASWAKGRFTFSRDTSKNTVYLQMNSLRAEDTAVYYCARGADGGFVYGMDLWGQGTLVTVSS
VL: EIVMTQSPSTLSASVGDRVIITCQASQSIGNYLSWYQQKPGKAPKRLIYSASTLPSGVPSRFSGSGSGAEFTLTISSLQPDDFATYYCQNNHWLAGYGHPFGQGTKLTVL
B4: MYT6149 (antibody, V domains shown)
VH: QEQLEESGGDLVKPGASLTLTCTASGLDFRRTNYICWVRQAPGKGLEWIGCIYIADVVHYYASWAKGRFTFSKTSSTTVTLQMTSLTAADTATYFCARGADGGFVYGMDLWGPGTLVTVSS
VL: DVVMTQTPASVSEPVGGTVTIKCQASQSIGNYLSWYQQKPGQRPKRLIYSASTLPSGVPSRFKGAGSGTEFTLTISDLESADAATYYCQNNYWLAGYHHPFGGGTEVVVK
notes: rabbit 15G7 VL G98H; chimeric, human constant regions
B5: MYT6150 (antibody, V domains shown)
VH: B4 VH
VL: B4 VL with H98G, H99A
notes: rabbit 15G7 VL H99A; chimeric, human constant regions
B6: MYT6148 (antibody, V domains shown)
VH: B4 VH
VL: B4 VL with Y97H, H98G
notes: rabbit 15G7 VL Y97H; chimeric, human constant regions
B7: MYT6151 (antibody, V domains shown)
VH: B4 VH
VL: B4 VL with H98G, P100H
notes: rabbit 15G7 VL P100H; chimeric, human constant regions
B8: MYT6146 (antibody, V domains shown)
VH: B4 VH
VL: B4 VL with A95H, H98G
notes: rabbit 15G7 VL A95H; chimeric, human constant regions
B9: MYT6147 (antibody, V domains shown)
VH: B4 VH
VL: B4 VL with G96H, H98G
notes: rabbit 15G7 VL G96H; chimeric, human constant regions
B10: MYT5712 (antibody, V domains shown)
VH: B4 VH
VL: B4 VL with H98G
notes: chimeric antibody (rabbit variable domains, human constant regions); also called 15G7; chimeric 15G7 RabMAb
B11: MYT6096 (antibody, V domains shown)
VH: B4 VH with D56H
VL: B4 VL with H98G
notes: chimeric rabbit 15G7 variant (rabbit variable domains, human constant regions); also called 15G7 VH D56H
B12: MYT6085 (antibody, V domains shown)
VH: B4 VH with R31H
VL: B4 VL with H98G
notes: chimeric rabbit 15G7 variant (rabbit variable domains, human constant regions); also called 15G7 VH R31H
B13: MYT6097 (antibody, V domains shown)
VH: B4 VH with V57H
VL: B4 VL with H98G
notes: chimeric rabbit 15G7 variant (rabbit variable domains, human constant regions); also called 15G7 VH V57H
B14: MYT6093 (antibody, V domains shown)
VH: B4 VH with Y53H
VL: B4 VL with H98G
notes: chimeric rabbit 15G7 variant (rabbit variable domains, human constant regions); also called 15G7 VH Y53H
B15: MYT6095 (antibody, V domains shown)
VH: B4 VH with A55H
VL: B4 VL with H98G
notes: chimeric rabbit 15G7 variant (rabbit variable domains, human constant regions); also called 15G7 VH A55H
B16: MYT6086 (antibody, V domains shown)
VH: B4 VH with T32H
VL: B4 VL with H98G
notes: chimeric rabbit 15G7 variant (rabbit variable domains, human constant regions); also called 15G7 VH T32H
B17: MYT6088 (antibody, V domains shown)
VH: B4 VH with Y34H
VL: B4 VL with H98G
notes: chimeric rabbit 15G7 variant (rabbit variable domains, human constant regions); also called 15G7 VH Y34H
B18: MYT6089 (antibody, V domains shown)
VH: B4 VH with I35H
VL: B4 VL with H98G
notes: chimeric rabbit 15G7 variant (rabbit variable domains, human constant regions); also called 15G7 VH I35H
B19: MYT6094 (antibody, V domains shown)
VH: B4 VH with I54H
VL: B4 VL with H98G
notes: chimeric rabbit 15G7 variant (rabbit variable domains, human constant regions); also called 15G7 VH I54H
B20: MYT6087 (antibody, V domains shown)
VH: B4 VH with N33H
VL: B4 VL with H98G
notes: chimeric rabbit 15G7 variant (rabbit variable domains, human constant regions); also called 15G7 VH N33H
B21: MYT6098 (antibody, V domains shown)
VH: B4 VH with V58H
VL: B4 VL with H98G
notes: chimeric rabbit 15G7 variant (rabbit variable domains, human constant regions); also called 15G7 VH V58H
B22: MYT6092 (antibody, V domains shown)
VH: B4 VH with I52H
VL: B4 VL with H98G
notes: chimeric rabbit 15G7 variant (rabbit variable domains, human constant regions); also called 15G7 VH I52H
B23: MYT6084 (antibody, V domains shown)
VH: B4 VH with R30H
VL: B4 VL with H98G
notes: chimeric rabbit 15G7 variant (rabbit variable domains, human constant regions); also called 15G7 VH R30H

The target in one experiment is T1, LRRC15 on the surface of LRRC15+ cells …. The experiment in a line: cell-based or functional assay.
In the case of B1, the “Internalization in U87MG cells (10 nM, 24 hours), FOB = fold over background (IgG control)” value is 2.57 fold over background (IgG control) and the “Internalization in U87MG cells (10 nM, 24 hours), FOS = fold over samrotamab” value (“Internalization … FOS = fold over samrotamab” for short) came to 1.83 fold over samrotamab.

On to B2, for which the “Internalization in U87MG cells (10 nM, 24 hours), FOB = fold over background (IgG control)” value was 2.69 fold over background (IgG control) and the “Internalization … FOS = fold over samrotamab” value was 1.97 fold over samrotamab.

As to B3, the “Internalization in U87MG cells (10 nM, 24 hours), FOB = fold over background (IgG control)” value is 2.53 fold over background (IgG control) and the “Internalization … FOS = fold over samrotamab” value came to 1.79 fold over samrotamab.

A further experiment deals with T2, Human LRRC15 Protein, His Tag (Acro …). The experiment in a line: BLI; dissociation pH 7.4 black, pH 5.4 grey [D00008 FIG. 1F]. The text has this:
(§1) For each individual plot, antigen binding proteins were captured on anti-human Fc biosensors and associated with LRRC15 at pH 7.4. Dissociation was at pH 7.4 (black) or pH 5.4 (grey). Major X-axis ticks=100 seconds, with left dashed vertical line=0 seconds. Major Y-axis ticks=0.5 nm and octet plots are shown MYT5712 and MYT6080-MYT6121.
(§2) Multiple LRRC15-binding monoclonal antibodies have been described in the literature and can be used as a template for engineering pH-dependent binding. We selected discovery RabMAb clone 15G7 (rabbit VH SEQ ID NO: 378, rabbit VL SEQ ID NO: 451; humanized VH SEQ ID NO: 382, humanized VL SEQ ID NO: 455) as a LRRC15-binding monoclonal antibody for pH-engineering via histidine scanning. […] To generate pH-dependent sequence variants, individual amino acid residues within the heavy chain CDRs were systematically substituted with a histidine (or alanine if H was already present in a given position; e.g., MYT6099), one at a time (rabbit, MYT6080-6121). Desirable mutations were transferred to a humanized framework (humanized, MYT 8387-8411). After allowing for four days of protein expression, cell culture supernatants were collected, quantified by SDS-PAGE analysis, and the pH dependence of the variant was evaluated using biolayer interferometry (BLI) on an Octet RED 96e instrument. Briefly, cell culture supernatants were diluted based on qualitative expression level of the variant determined by visual examination of SDS-PAGE gels, 5 μL of cell culture supernatant was diluted into 195 μL of 1×PBST, pH 7.4 for high expressors, 25 μL of cell culture supernatant was diluted into 175 μL of 1×PBST, pH 7.4 for medium expressors and 100 μL of cell culture supernatant was diluted into 100 μL of 1×PBST, pH 7.4 for low expressors for loading onto the sensor tips.
(In general: BLI is a label-free optical method that tracks binding on a fibre tip over time.)
On to B4, for which the binding result was “binds”. B5: the binding result is on record as “binds”.

Turning to B6, the binding result is on record as “binds”. Regarding B7, the binding result is given as “binds”. The same measure, in the same setting: as for B8, the entry is “binds”; as for B9, “binds”.

In a further experiment the target is T3, Human LRRC15 Protein, His Tag (Acro …). The experiment in a line: BLI; dissociation pH 7.4 black, pH 5.4 grey [1/2); D00006 FIG. 1E (1/2].
Excerpt: as §1, §2
For B10, the binding result is “binds”.

Regarding B11, the binding result was “binds”. Turning to B12, the binding result was “binds”. B13: the binding result is given as “binds”. For B14, the binding result is listed as “binds”. As for B15, the binding result was “binds”. B16: the binding result was “binds”. On to B17, for which the binding result is “binds”.

Regarding B18, the binding result was “binds”. Still for that read-out and setting: the entry for B19 is “binds”; for B20 it is “binds”; for B21 it is “binds”. B22: the binding result is reported as “binds”.

As to B23, the binding result was “binds”.
